{
  "source": "paper PMC11827629",
  "key": {"[1]": {"molecular_target": "T1, thrombin, N-terminally 2PCA-labeled (Cy5, biotin) (UniProt P00734;P00734 328-363;364-622)", "assay": "single-molecule FRET (koff/kon); koff 0.7 +/- 0.1 s-1; kon 0.7 +/- 0.1 e8 M-1 s-1; main text gives error 0.8; smFRET: 1x PBS with 2.5 mM PCA, 0.155 U/ul PCD, 1 mM Trolox, 5 nM Cy3-aptamer, 23 +/- 1 C, pH not stated; QCM: PBS, flow 45 +/- 3 ul/min, thrombin 0.06-16.5 nM"}, "[2]": {"molecular_target": "T1, thrombin, N-terminally 2PCA-labeled …", "assay": "single-molecule FRET (koff/kon); koff 0.3 +/- 0.1 s-1; kon 1.1 +/- 0.1 e8 M-1 s-1; smFRET: 1x PBS with 2.5 mM PCA, 0.155 U/ul PCD, 1 mM Trolox, 5 nM Cy3-aptamer, 23 +/- 1 C, pH not stated; QCM: PBS, flow 45 +/- 3 ul/min, thrombin 0.06-16.5 nM"}, "[3]": {"molecular_target": "T1, thrombin, N-terminally 2PCA-labeled …", "assay": "single-molecule FRET (koff/kon); koff 0.1 +/- 0.1 s-1; kon 0.2 +/- 0.1 e8 M-1 s-1; main text gives error 0.7; smFRET: 1x PBS with 2.5 mM PCA, 0.155 U/ul PCD, 1 mM Trolox, 5 nM Cy3-aptamer, 23 +/- 1 C, pH not stated; QCM: PBS, flow 45 +/- 3 ul/min, thrombin 0.06-16.5 nM"}, "[4]": {"molecular_target": "T2, human alpha-thrombin (Homo sapiens, UniProt P00734;P00734 328-363;364-622)", "assay": "QCM; about twice the sensitivity of RE31; response at 300 pM; release 3.1 +/- 1.05% per 5 min at 16.5 nM; smFRET: 1x PBS with 2.5 mM PCA, 0.155 U/ul PCD, 1 mM Trolox, 5 nM Cy3-aptamer, 23 +/- 1 C, pH not stated; QCM: PBS, flow 45 +/- 3 ul/min, thrombin 0.06-16.5 nM"}, "[5]": {"molecular_target": "T2, human alpha-thrombin", "assay": "QCM; linear 1.65-16.5 nM; no significant change below; release 6.3 +/- 0.6% per 5 min at 16.5 nM; smFRET: 1x PBS with 2.5 mM PCA, 0.155 U/ul PCD, 1 mM Trolox, 5 nM Cy3-aptamer, 23 +/- 1 C, pH not stated; QCM: PBS, flow 45 +/- 3 ul/min, thrombin 0.06-16.5 nM"}},
  "data": [
    {"binder": "TTTTTTTGGTTGGTGTGGTTGG (structured_DNA)", "note": "[HD1 single molecule exp.]", "values": [
      {"measurement": "Kd", "setting": "[1]", "result": 9.2, "unit": "nM"}
    ]},
    {"binder": "TTTTTTTGTGACGTAGGTTGGTGTGGTTGGGGCGTCAC (structured_DNA)", "note": "[RE31 single molecule exp.]", "values": [
      {"measurement": "Kd", "setting": "[2]", "result": 2.9, "unit": "nM"}
    ]},
    {"binder": "TTTTTTTCGCCTAGGTTGGGTAGGGTGGTGGCG (structured_DNA)", "note": "[NU172 single molecule exp.]", "values": [
      {"measurement": "Kd", "setting": "[3]", "result": 3.3, "unit": "nM"}
    ]},
    {"binder": "TTTTTTTCGCCTAGGTTGGGTAGGGTGGTGGCG (structured_DNA, 5' amino C6)", "note": "[NU172 QCM exp.]", "values": [
      {"measurement": "binding result", "setting": "[4]", "result": "binds"}
    ]},
    {"binder": "TTTTTTTGTGACGTAGGTTGGTGTGGTTGGGGCGTCAC (structured_DNA, 5' amino C6)", "note": "[RE31 QCM exp.]", "values": [
      {"measurement": "binding result", "setting": "[5]", "result": "binds"}
    ]}
  ]
}
